1 molecule from patent US5952463 can be followed below.

Test [1] concerns the target Subtilisin.
For test [2], the target named is Thermolysin.
The target in test [3] is Trypsin.
Test [4] addresses Chymotrypsin.
In test [5] the target is purified secretion-type Kex2 proteinase (sKEX2 product, Saccharomyces yeast) (Saccharomyces yeast) (UniProt P13134). The arrangement: unit not given beside the values.
The target in test [6] is Subtilisin. The source holds these as a separate data set.
In test [7] the target is Thermolysin. This is another data set of the same source.
Test [8] concerns the target Pepsin.
The target of test [9] is Trypsin. The source holds these as a separate data set.
The target of test [10] is Chymotrypsin. The source holds these as a separate data set.

B1: Kexstatin (proteinase inhibitor purified from the culture fluid of Streptomyces platensis Q268) (protein)
chain: GLYAPTELVLTVGQGESRATATVQRAVTLSCMPGARGSHPNPLGACTQLRAVAGDFNAITAATSDRLCTKEWNPLVVTADGVWQGKRVSYSYTFANRCEMNIDSDTVFNF
Take B1: the Inhibition Ratio (%), casein Folin method was 87% in test [1], -5.5% in test [2], 2.4% in [3] and -19% in test [4]. The IC50 (amount of Kexstatin which inhibits the activity of 1 µg of Kex2 proteinase by 50%) (µg (per 1 µg of Kex2 proteinase)) in [5] came to 1.4. For the same molecule, the Inhibition Ratio (%), synthetic fluorescent substrate Suc-Ala-Ala-Pro-Phe-MCA, enzyme at 1/10 molar ratio to 0.5 µg of Kexstatin in [6] was determined as 99.5%; in test [10], 0%. Also, the results for the Inhibition Ratio (%), casein Folin method, enzyme at 1/10 molar ratio to 0.5 µg of Kexstatin in test [7] and in [8] were 8% and 0%, respectively. For the same molecule, the Inhibition Ratio (%), synthetic fluorescent substrate Bz-Arg-MCA, enzyme at 1/10 molar ratio to 0.5 µg of Kexstatin in [9] was 49.2%.
